“Also recorded” adds a separate entry of the source. Read-outs that look alike come from different tables or passages of the source.

The subject of data set [1] is E. coli and S. aureus strains. Kind of data set: Systemic infection experiments, summary over all strains. Particulars: 10 mg Kg^−1.
Experimental: To determine the anti-infective activity of mast-MO in a pre-clinical mouse model, the ability of the peptide to kill pathogenic and drug-resistant E. coli and S. aureus strains was tested in a systemic sepsis infection mouse model (FIG. 5). The minimal bacterial load resulting in a lethal dose (LD100) 24 h post-intraperitoneal injection was first determined. […] Mice were infected with the LD100 of bacteria and treated 3 h post-infection with either mast-L (1 and 5 mg Kg^−1) or mast-MO (1, 5 and 10 mg Kg^−1), which were also administered intraperitoneally.
Systemic bacterial infection mouse model. […] The experiment was performed by intraperitoneal (i.p.) injection of the tested peptides to groups of 10 C57BL/6 mice. Each mouse was injected with a 0.5 mL solution of freshly prepared of peptides in PBS. The doses of peptide administered per mouse were 0, 10, 30, 50, 70 and 90 mg Kg^−1 of body weight. Animals were directly inspected for adverse effects for 6 h, and mortality was monitored for 7 days thereafter. Differences between groups were analysed using the Fisher exact test (differences were considered to be statistically significant when the P value was <0.05). Briefly, E. coli ATCC8739 and E. coli 1812446 or S. aureus ATCC 29213 and S. aureus (MRSA) ATCC33591 were plated on tryptic soy agar plus 5% sheep blood (blood agar, Himedia, India) from a frozen stock. Following 24 h of incubation of the agar plate, three isolated colonies were transferred to 1 mL of BHI. The broth culture was incubated overnight (12-16 h) at 37° C. with shaking. […] Mice were challenged with either strain of E. coli ATCC8739 and E. coli 1812446 or S. aureus ATC29213 and S. aureus (MRSA) ATCC33591 in a final volume of 200 μL of PBS by intraperitoneal injection (i.p.). The day of challenge was designated as day 1 of the experiment. Three hours after bacterial injection, mice (n=5) were treated, intraperitoneally, with different concentrations of peptides (1, 5 or 10 mg Kg^−1), LL-37, gentamicin and 10 mg Kg^−1 of imipenem or PBS for 8 days. For bacterial load evaluation, 5 mice per group were used. […]
For data set [2], the system named is different human and murine cell lines. Kind of data set: Hemolysis and cytotoxicity, text summary over the cell lines of Table 2. The class given is cell-based. Conditions: range over cell lines.
Experimental: Once the mechanisms by which the peptide targeted bacterial cells was elucidawted, the effect of the pentapeptide motif insertion on cytotoxicity against mammalian cells was evaluated.
Data set [3] has as its system murine macrophages monocytes (RAW 264.7). Kind of data set: Cytotoxicity against RAW 264.7 cells (MTT). The class given is cell-based. Particulars: RAW 264.7 (Table 2).
For data set [4], the system named is human embryonic kidney (HEK293) cells. Description: Cytotoxicity against HEK293 cells. Particulars: HEK293. Format: cell-based. An excerpt:
The FLPII motif was chosen for the permutations to preserve the natural antimicrobial activity of mast-L and also conserve the hydrophobic content inserted in the N-terminal extremity for the initial design of mast-MO. Next, we assessed the antimicrobial (FIG. 10) and cytotoxic activities of the mast-MO analog library against HEK293 cells (FIG. 6C). These specific cell line was chosen as it derives from human embryonic kidney cells and potential antimicrobial (i.e., AMPs, antibiotics) toxicity affects the kidneys, which are responsible for clearing such molecules (34). Also measured was whether the peptides aggregated at the highest concentration tested (128 μmoL^−1) (Table 7) since the motif inserted is composed of residues with aliphatic or aromatic side chain groups that may be prone to aggregation when in proximity within the primary peptide sequence, thus altering biological activity. Minor changes to the first five residues inserted in the mast-MO primary sequence led to a pronounced decrease in cytotoxic activity (2.5 to 5-fold) compared to mast-MO (FIG. 6C).

For the next data set, the system named is mice. As to the method: Therefore, the anti-infective activity of mast-MO was then tested in pre-clinical mouse models. First, the toxicity of a single dose of either mast-L or mast-MO administered peritoneally to mice was assessed in order to determine the range of concentrations to be used in subsequent animal experiments. The hemolytic activity of mast-MO (up to 200 μmoL^−1) against murine red blood cells (Table 6) was also tested prior to conducting animal experiments.
Systemic bacterial infection mouse model. Acute toxicity assay was performed based on the work of Navon-Venezia and co-workers (46). The experiment was performed by intraperitoneal (i.p.) injection of the tested peptides to groups of 10 C57BL/6 mice. Each mouse was injected with a 0.5 mL solution of freshly prepared of peptides in PBS. The doses of peptide administered per mouse were 0, 10, 30, 50, 70 and 90 mg Kg^−1 of body weight. Animals were directly inspected for adverse effects for 6 h, and mortality was monitored for 7 days thereafter. Differences between groups were analysed using the Fisher exact test (differences were considered to be statistically significant when the P value was <0.05). Briefly, E. coli ATCC8739 and E. coli 1812446 or S. aureus ATCC 29213 and S. aureus (MRSA) ATCC33591 were plated on tryptic soy agar plus 5% sheep blood (blood agar, Himedia, India) from a frozen stock. Following 24 h of incubation of the agar plate, three isolated colonies were transferred to 1 mL of BHI. The broth culture was incubated overnight (12-16 h) at 37° C. with shaking. […] Mice were challenged with either strain of E. coli ATCC8739 and E. coli 1812446 or S. aureus ATC29213 and S. aureus (MRSA) ATCC33591 in a final volume of 200 μL of PBS by intraperitoneal injection (i.p.). The day of challenge was designated as day 1 of the experiment. Three hours after bacterial injection, mice (n=5) were treated, intraperitoneally, with different concentrations of peptides (1, 5 or 10 mg Kg^−1), LL-37, gentamicin and 10 mg Kg^−1 of imipenem or PBS for 8 days. For bacterial load evaluation, 5 mice per group were used. Animals were humanely killed 24 h after bacterial administration. To detect bacterial colonization, the peritoneal lavage samples were collected under sterile conditions. The peritoneal lavage was obtained by washing the cavity with 5 mL of sterile PBS. Samples were diluted serially, and 100 μL of each dilution was spread in duplicate on appropriate agar plates for the count of developed colonies. Cytokine levels (i.e., IFN-γ, IL-6, IL−10, IL−12p70 and TNF-α) in the peritoneal lavage of the mice both in the absence and presence of peptide treatment were quantified by ELISA (Peprotech, USA) according to the manufacturer's instructions.

A further data set relates to IL-12, TNFα, IL-6. Description: Cytokines in peritoneal fluid of infected mice (ELISA). Format: in vivo, C57BL/6 mice. Particulars: tracked for 48 h; mast-MO 10 mg Kg^−1, mast-L 5 mg Kg^−1. On the procedure: […] PBS and imipenem (10 mg Kg^−1) were used as negative and positive controls, respectively. Data were expressed as mean±standard deviation. Statistical analysis was performed using Bonferroni test. ***p<0.001 as significant compared to the control.
To test whether the FLPII motif within the mast-MO sequence led to increased immunomodulatory and chemotactic properties with respect to mast-L, ELISA experiments were performed using the peritoneal fluid collected from mice (FIG. 5a). C57BL/6 mice were infected with both Gram-negative and Gram-positive pathogens and administered either mast-L or mast-MO intraperitoneally. For mice infected with E. coli ATCC8739, we monitored the peritoneal cavity to detect and quantify the release and presence of several immune mediators (FIG. 4E). […] This effect was similar to the positive control group of mice treated with […] (TGA) (FIG. 4B). […] After 24 h, the leukocyte recruitment levels in mast-MO-treated mice dropped to ˜10^6, likely attributed to the resolution of the infection by the peptide (FIGS. 5B and 5C). […] We monitored, via ELISAs, the cytokine profiles present within the peritoneal cavity of mice infected with E. coli ATCC8739 and S. aureus ATCC29213 (FIGS. 4E and FIG. 4F, respectively) and treated with a single dose of peptide. […]

As to NLKALAALAKKIL [Mast-L], the “Toxicity when injected systemically in the infection model” value in data set [1] is “had to be euthanized; also recorded: led to toxicity”. Also, in data set [2], the “Concentration hemolytic and toxic towards human and murine cell lines” value lay in the range of 7 to 50 µmol⁻¹. In addition, the “Cytotoxic activity, Peptide Concentration” value is 10 µmol/L in data set [3] and 50 µmol/L in data set [4]. In addition, the “Gross toxicity, number of mice (TL)” value in the data set with mice (Dose 5 mg Kg^−1, five mice per group) is 2 (TL-1); with mice (Dose 10 mg Kg^−1, five mice per group), 5. The “Dose above which highly toxic in preliminary mouse experiments” value in the data set with mice (single dose, peritoneally) is “higher than 10 mg Kg^−1”. Also, the “Pro-inflammatory cytokines IL-12, TNFα and IL-6 in the peritoneal cavity” value with IL-12, TNFα, IL-6 is “repressed”.

These data come from US12116387B2, “Antimicrobial peptides” (priority 2021, dated 2024).
